Laboratory results as given in patent publication US20070298041A1 (published 2007).

Tests used:
[1] = molecular target: T1, mouse TNFR1 (biotinylated, immobilized on SPR chip) (mouse (Mus musculus), UniProt P25118 30-212, biotinylated (site not stated)); assay: SPR (BIACORE 3000), biotinylated mouse TNFR1 on streptavidin chip, competition with chimeric TNFR1 proteins
T1 construct: also called murine TNFR1; mTNFR1
T1 sequence: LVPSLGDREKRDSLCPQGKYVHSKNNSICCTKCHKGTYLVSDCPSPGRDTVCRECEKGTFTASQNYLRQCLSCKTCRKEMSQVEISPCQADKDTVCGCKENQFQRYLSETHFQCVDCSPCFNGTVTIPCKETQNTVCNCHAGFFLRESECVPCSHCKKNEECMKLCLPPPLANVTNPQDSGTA
Experimental: (§1) If the dAb is pre-incubated and equilibrated with a chimeric molecule that comprises the domain(s) of TNFR1 that the particular dAb binds, then flow of this mixture over the TNFR1 surface will produce a smaller SPR signal relative to the dAb alone.
(§2) The choice of TNFR1 surface is determined by the species specificity of the anti-TNFR1 dAb to be tested. Therefore anti-human TNFR1 dAbs were evaluated using a surface coated with human TNFR1 and anti-mouse TNFR1 dAbs were evaluated using a chip coated with mouse TNFR1.
(§3) Biotinylated TNFR1 was diluted in the appropriate SPR buffer and run across a streptavidin (SA) sensor chip in a BIACORE 3000 SPR instrument (Biacore International AB, Uppsala, Sweden). A low flow-rate (5-10 μl/minute) was used in order to maximise the contact time between the biotinylated TNFR1 and the streptavidin surface. Flow continued until the streptavidin surface was saturated with biotinylated material, in order to generate a chip with maximal TNFR1 surface.

[2] = molecular target: T2, human TNFR1 (biotinylated, immobilized on SPR chip) (human (Homo sapiens), UniProt P19438 30-211, biotinylated (site not stated)); assay: SPR (BIACORE 3000), biotinylated human TNFR1 on streptavidin chip, competition with chimeric TNFR1 proteins
T2 construct: also called hTNFR1
T2 sequence: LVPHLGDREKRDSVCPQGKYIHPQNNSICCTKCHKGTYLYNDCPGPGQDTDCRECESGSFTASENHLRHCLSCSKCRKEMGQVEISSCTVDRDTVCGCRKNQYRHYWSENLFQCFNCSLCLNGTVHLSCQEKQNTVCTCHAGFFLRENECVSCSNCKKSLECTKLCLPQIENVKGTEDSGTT
Experimental: as §1, §2, §3

B1: TAR2m-21-23 (other)
VH: EVQLLESGGGLVQPGGSLRLSCAASGFTFNRYSMGWLRQAPGKGLEWVSRIDSYGRGTYYEDPVKGRFSISRDNSKNTLYLQMNSLRAEDTAVYYCAKISQFGSNAFDYWGQGTQVTVSS
notes: Domain antibody (dAb), a single immunoglobulin VH variable domain; also called anti-mouse TNFR1 dAb
binding result [1]: binds

B2: TAR2h-205 (other)
VH: EVQLLESGGGLVQPGGSLRLSCAASGFTFVKYSMGWVRQAPGKGLEWVSQISNTGGHTYYADSVKGRFTISRDNSKNTLYLQMNSLRAEDTAVYYCAKYTGRWEPFDYWGQGTLVTVSS
notes: Domain antibody (dAb), a single immunoglobulin VH variable domain; also called anti-human TNFR1 dAb
binding result [2]: binds
